Measurements reported in a protein production outcome set (Wang et al. 2014).

Assay: label from the status in PepcDB records

Sequence | protein production
MVTQNKLKKLVLGLSLIAASSAAMATTDTAKPNILAIWGDDIGPFNISAYNRGIMGYKTPNIDRIANEGIIFTDSYGDQSCTAGRAGFITGQHPMRTGLTKVGLPGAKEGLNKKDPTIAELLKPHGYMTGQFGKNHLGDQDEHLPTNHGFDEFFGNLYHLNAEDEPEHPDYPKDPAFKKRFGPRGAIHSFADGKITDTGPVTKKRMETIDEEFLGAALKFIDKAHAAKKPFFVWFNSTRMHVWTRLKPESDGVTGQGLYADGMVEHDGHVGQLLDKIDKLGIAENTIIMYTTDNGAELALWPDGGYTPFRGEKNTNWEGGYRVPMMVKWAGKIKPNQVSNEMISLIDWMPTILAVAGDTNIKSKLKKGTNVGGTKFKVHLDGYNFLPHFLDTTKEGPRKEFIYSSDTGDIVGLRYEDYKFVFKEQRAHGLEVWQNPWTTLRAPKIFNLRMDPYERMDHESEGYGQWWAEHMFLMAPAMMKVAQFKATFKEFPQRQKPGSFVP | failed
MVTSSSMRRCRGALSLSFWIFLVLRSVLSRPVFGAAAGPAVQSARQCSASRGTGESDPPPFQPTLRLFPPSRRRRSYCRAMTPSRPSPDFPDGGFVQVRGARQHNLKDISVKVPRDALVVFTGVSGSGKSSLAFGTLYAEAQRRYLESVSPYARRLFNQAGVPDVDAIDGLPPAVALQQARGTPTARSSVGSVTTLSNLLRMLYSRAGDYPPGQGIVYAEGFSPNTPEGACPECHGLGRVYTVTEDSMVPDPSLTIRERAVAAWPQAWGGQNQRDILVTLGIDVDVPWRELPEETRHWILFTDEQPVVPVYPGLTPAETQRALKKKMEPSYMGTFSSARRHVLHTFANTESASMKKRVQGYMISEECPLCHGKRLRQEALNVTFAGLDITELSRLPLARVSELLRPYAEEREPGHAERVKNRPEQAIALQRMAADLVKRLDVLLHLGLGYLGLDRSTPTLSPGELQRLRLATQLYSNLFGVVYVLDEPSAGLHPADTEALLSALENLKRGGNSLFVVEHDLDVIRRADWLVDVGPEAGEKGGEILYSGPPEGLKHVPESQTGQYLFADRHTEPHTPREPAGWLELNGVTRNNLDNLDVRFPLGVMTSVTGVSGSGKSTLVSQALVDALAAHFGQPVNPDPEDDEDPADHTAGSARLGGDLAQITRLVRVDQKPIGRTPRSNMATYTGLFDQVRKLFAATPLAKKRGYNAGRFSFNVKGGRCEHCQGEGWVMVELLFLPSVYAPCPVCHGTRYNAETLEVEYRGKNIADVLALTVDEAHDFFADESAIFRALDTLREVGLGYLRLGQPATELSGGEAQRIKLATELQRSGRGGTVYVLDEPTTGLHPADVERLQRQLVKLVDAGNTVIAVEHKMQVVAASDWVLDIGPGAGEDGGRLVAQGTPAEVAQAAGSVTAPYLRAALR | failed
MVTSTELTGQTAGVPDAGLVERALAYVREKADGEKPTTLPTGETVLSHAEGMLRILDGLRVDDAARAAACLFPMVAFVPGVEAHIEERFGEDVARLVKGVRQLLRIGAIATQAEAVETSKSQAAARQEQVEALRKMLLAFAQDIRVVLVRLASRLQTLRWLAQTKSQPLPGVARETLDIYAPLANRLGIWQMKWELEDLAFRFEQPETYKRIAKLLDEKRIEREGYISQAIARLQSELAAAGIRAEVTGRPKHIYSIWKKMRGKALDFADLYDVRAFRVIVDDIKDCYTVLGIVHHIWQPIPREFDDYISRPKANGYKSLHTVVIGDDGRAFEVQIRTHEMHHFAEYGVAAHWRYKEAGGKGYSGQFTADNSYDEKIAWLRQLLAWKDDADHTVTHEDSPWEQLKHAAIDDHIYVLTPQARVVALPQGATPVDFAYYLHSDLGHRCRGARVDGAMVPLNTPLKNGQTVEIVAVKQGGPSRDWLNPELGYLASSRARAKVRAWFNALDSQETIAQGRALIEKTLQREGKTAVNLDDLATRLNFKTPDDLFAAVAKEEFSLRHVEQALRHPDGEVQPQFSEEEAVTKKSRATSVARGAKSGVLVVGVDSLMTQMSRCCKPAPPDDIVGFVTRGRGVSIHRRNCHTFQQLSTRDPERVIQTEWGKRSDAVYPVDIQVEAIDRQGLLRDISEVLSREKINVTGVKTLSSKGVARMQFTAEVAEATQLQRAISLIEEVQGVLHAKRK | failed
MVTSVSALAVAVVHSVAFAIGRRIGRYNVVDVVWGLGFVAVAVAAATLGHGDPVRRWLLLALVSTWGLRLSWHMYRKTAGQGEDPRYADLLRGATPVQALRKVFGLQGLLTLFVSFPLQLSAVTGPTPKPLLAVGGVGLAVWLVGITFEAVGDWQLWVFKSDPANRGVIMDRGLWAWTRHPNYFGDACVWWGLWLITINDWAPLATVGSPLLMTYLLVDVSGARLTERYLKGRPGFAEYQRRTAYFVPRPPRSARR | failed
MVTVVVPAHNEDVVIAQTAKAILDMKYPRDKLEIILFADNCEDNTYQEMQSIKALPQYADRDLTLINRSGTGGKAGVLNDALKIAKGDYICVYDADAMPEKNALYFLVQKVMEDPERHVAAFGRNKTRNANQNFLTRCINQEIVVTQRIQHVGMWHLGKIGRIPGTNFIINTEFVKSIGGWRNGALTEDTDISFKIMQSGKLIALAYNSEAFQQEPETLKSYYLQRKRWAKGNYEVVIANFKHLFGRGNWRVKWEVFYYTCTFFWFNAAIVLSDILFFSNLIALIIGLFKPGVQVPFAFDANNIYMAQLLLFNWFLMILLYLLQISISQATQYGQATVKQIWIALLAYFTYTQLFIIVSISSVASVMMDKILHREGTKWVKTKRFAG | failed
MVTYSTFIVIAIYLILTILISWFVNQRSIGNTDFSTGGRQFGWFTAGVSILATYISAMTFIGMPGWVYQSGMEALNIHLNYPIVIFFAVVFFIPVFYRMGFTSIYEYLEHRFGVYARTINSVVFILVQCISSGVILYAIALILIQILPISIVEAIVYITLFTACYTYAGGISTVIWTDMLQSAVLIAGSVAIFVLLLLQVDGVHGVSREQLNIINLQFDLGVDTTLWAGVVAVSFLHMSVYGTNQLIIQRTLATRCEKTAQKSMLLCGYGAFFIYFFFALLGVLLSIFYQERHFTNSNEVILDFVFHHTNPWVIGLIISALAAAAMSTLDSTYNSMATVATFDLYQRFIRRNAPDHHYQAVARKMSLVAAGLVVIPALLAVSNESVLKTIASLTSIFVGIRLGSFVLGLFSNQANEKGVIAGSIISIAAVLGARLMDIAWPWFAPIGTVFFLVSGVVISRYWGDNSIQQQAFIARQKHLFATPTMSQYGLLVFAAVTIAVCAIIPDWLYNALS | failed
MVVDSVTMEEEDTKEEAAMVATEGEDTKEEEDDTKEAVGDKEEGEVTAATAAATKVTMAAQGVVHMPEKRFRLSLVTKST | failed
MVVIDPTLLGILACPQDKGPLLLVGDELLYNPRLRRAYPIENGIPVLLIDEARDVGADEHETLLARAAGEA | not failed
MVVSIITPLYKVEDFIARCADSLFRQSYTEIEYIFVDDCSSDRSVEVLLQVAERYPQLQQQIRILHHESNRGVAAARETGLAAATGEYVYWVDADDWIEPDAIEKMVVRSEQGQKDIIACGWYLCFRQNERRMPMPCYADAETALRGMLSGTMRWNLWLYMIKRDLYLMNDIHFMEGENVGEDMLVLIKLFSHAKSIGFVKDAFYHYVKQNENSLTRLSPEQQMKRQMRNLQAATDYLVTHFIGKYEKEINFFKLNAKMPLLISNDKNSYRTWTACFPEANKYIMANKRQTLRMRLVQLMAAKRQFWLVELYYQLVFKFVYGILYK | failed
MVVVCASHIQPAIICRFTWLRFLMEIILIRHGKPTSANNPVLNAVDFTKWVRRYNFSDVSTNSRPDSILDEYKSHYIVSSDLERAIHSASIYTGQSPELTSKLYREMEIPRYKFPLRFKAMTWVYINRAFWMLGLKGSFESYRQAKIRAELASDHLVELAREQDKVILFGHGYLNLHIRRSLIKKGWKLNSKSNGFWGISSLEG | failed
MVVVCASHIQPAIICRFTWLRFLMEIILIRHGKPTSANNPVLNAVDFTKWVRRYNFSDVSTNSRPDSILDEYKSHYIVSSDLERAIHSASIYTGQSPELTSKLYREMEIPRYKFPLRFKAMTWVYINRAFWMLGLKGSFESYRQAKIRAELASDHLVELAREQDKVILFGHGYLNLHIRRSLIKKGWKLNSKSNGFWGISSLEGLEHHHHHH | failed
MVVYPNEEAENGSLRFVDFVNKTFALLGNSPIKKFSLRHEPRLYCVDAYLRWIFTAMEQERGLLELHLYADRYYYPVGIERELFTSNTLVKLTLSGRYDFQVETVFLPALKSLSLSSSFEIGFDKYCNLLDGFPALEELYIREAVSELSNALLSSGTFVKCASIKRLVVFTDCPKFKEDEDHQEPCFIAPSLVYLDYSSYLSENYDLIDLNSLVEARLNLRLLESFNNYGSSDNDGDVYGWDFNVPFDYYGDVTNLVAGITNITTLHLSPDSLEVFHFRCKSIPVFNNLLLNLSIESNKRNGWQVMPLLIRSCPNLHTLVIKGFVHRVTSKCGDACACIPKKQRKIGKKEEISEYGGSFQELEQMRHFLGKLERLETVKVGVHAENNNNNEFLRANLLTLPRLSSKCNNIQFI | failed
MVWAPLGPPRTDCLTLLHTPSKDSPKMSLEWLVAWSWSLDGLRDCIATGIQSVRDCDTTAVITVACLLVLFVWYCYHVGREQPRPYVSVNSLMQAADANGLQNGYVYCQSPECVRCTHNEGLNQKLYHNLQEYAKRYSWSGMGRIHKGIREQGRYLNSRPSIQKPEVFFLPDLPTTPYFSRDAQKHDVEVLERNFQTILCEFETLYKAFSNCSLPQGWKMNSTPSGEWFTFYLVNQGVCVPRNCRKCPRTYRLLGSLRTCIGNNVFGNACISVLSPGTVITEHYGPTNIRIRCHLGLKTPNGCELVVGGEPQCWAEGRCLLFDDSFLHAAFHEGSAEDGPRVVFMVDLWHPNVAAAERQALDFIFAPGR | failed
MVWPFKSKFRKQIARIEITGAIASGTRKRVLEALKTVEERKFPALLLRIDSPGGTVGDSQEIYSALKRLREKIKIVASFGNISASGGVYIGMGAEHIMANPGTITGSIGVILRGNNLERLLDKIGVSFKVIKSGPYKDILSFDRELTEPEQDILQELIDTSYQQFVQTVAEGRSLAVDKVKSFADGRIFTGQQALELGVVDRLGTEEEARRWTAELVGLDPEKTPCYTLEERKPLLSRVLPGSRKGYSRLGASIDWLEFEMSTSGLPLWLYRP | failed
MVYKPLEASDRTELRALQSDRLQRIVTHAHENVPFYREKLDAAGVSPEDIQSIDDITKLPMTTKEDFRDEYPDGLFAVDDEEVARIHASSGTTGKPKIVSYTDDDLDTWSEVVARSLAASGTEAGDTVQNAYGYGLFTGGLGIHYGTEELGASVVPIGSGQTQRQVELMTDLESDVFTCTPSYALYLAETAEEMGHDPRDLPISTIIFGAEPCTDPMREEIEERLGVDGIDIYGLSEIIGPGVSCECHEAKDGLHIWEDHFYPEVIDPHTKEPVEEGEEGELVLTTLTKEALPVFRYRTGDLTTLNYDECACGRTMVRMDNVTGRTDDLLIVRGVNLYPSEIEHAVLDIDGVAPHYRIDLYKEDNLDILELTIERTAEQGPGDKALEDEIIERLENVLAFTPDELELVAPGSIERTQVGKVKRVYDHRD | not failed
MWALLLRFYIALPLSVIVLLVLKTSFPTHKQALHSYFAGSFSLIGSQIFTYAATQYLSSGMIALMFGLAPIMAGLIGRFAFGQHLFKLQWLGMAVAVCGLAIICLNGSNQHVHPFGIVLMLVSVFVYSFSIFWVKKVNAKIQPMAQATGSILVSSILASCLIPFIWQYAPTHLPQAKSLFALIYTVLMASLVAMFCYFKLVQNIKPTTLSLTTVITPMLAMIIGAVLNHEQLSIMVFVGAFIILFGLFLYFYKDIQANRNFAQHIKSK | failed
MWDMKFVDRIDEAARLKDALAREKSSLVVMYGRRRLGKSTLIKRVLSENDVYFLADRSEGQHQRALLAKVIAQVFPDFEKLSYPDWESMFRAVNYRTDKRFTLCLDEFPYLVEQSPELPSVLQKLVDEKQLKYNLVLCGSSQNMMYGLFLDSTAPLYGRADEIMRLTPIRLPYIQEALNLNAMNAIEEYAIWGGVPRYWELRENRISLDDAMWHNILSVNGTLYEEPVKLFQDDVKDIVKTSTIMSYIGTGANRLSEIAARCNEPATNLSRPLKKLVDLGFLEKDVPFGIDEKNAKKSLYKIADPFMAFYYQFVVPNRSFIELGRRLPIEQALTAHFSEYVSMQWEKLCRDAVTGNLVNGVVYGKAKRWWGSVLNEDKKPEQVEFDVMAESLDKKYLLVGECKWTTGENGKQLTAELLRKANLLPFAKNYTIVPVLFLKNAPKDDAGNAMLSENVVELMK | failed
